Experimental data published in the RNAGym collection of RNA variant scans (doi:10.7554/elife.90254).

B1: LINE1-mini (parent)
chain: GGCAGAGCUCAACACAGCGUGGCAAAGUGGCUGUGGCUAGACUGCC

Variants of: B1
Assay: self-cleavage, relative activity (ratio to wild type); higher = more cleavage; in vitro, sequencing; the parent is a self-cleaving ribozyme

Variant | self-cleavage
A6C G36C | 0.16
A6C G36A | 0.31
A6C G36U | 0.06
A6C U32G | 0.05
A6C U32C | 0.05
A6C U32A | 0.03
A6C A16G | 0.22
A6C A16U | 0.09
A6C A16C | 0.1
A6C A41U | 0.1
A6C A41G | 1.17
A6C A41C | 0.04
A6G C15U | 0.17
A6G C15A | 0.05
A6G C15G | 0.02
A6C U43A | 0.13
A6C U43G | 0.03
A6C U43C | 0.08
A6C G30A | 1.01
A6C G30C | 0.2
A6C G30U | 0.9
A6G C8G | 0.08
A6G C8A | 0.15
A6G C8U | 0.22

Variant | self-cleavage
A6G C18U | 0.08
A6G C18A | 0.11
A6G C18G | 0.11
A6G A24U | 0.19
A6G A24C | 0.13
A6G A24G | 0.12
A6G A12U | 0.09
A6G A12G | 0.03
A6G A12C | 0.05
A6G C10G | 0.02
A6G C10U | 0.04
A6G C10A | 0.03
A6G A11G | 0.02
A6G A11U | 0.02
A6G A11C | 0.02
A6G A26C | 0.14
A6G A26U | 0.1
A6G A26G | 0.1
A6C G40U | 0.15
A6C G40C | 0.1
A6C G40A | 0.11
A6C G19U | 0.56
A6C G19A | 1.02
A6C G19C | 0.3

Variant | self-cleavage
A6C C45U | 0.7
A6C C45G | 0.09
A6C C45A | 0.47
A6C C15U | 0.66
A6C C15A | 0.1
A6C C15G | 0.04
A6C A26G | 0.65
A6C A26C | 0.48
A6C A26U | 0.77
A6C U9A | 0.18
A6C U9C | 0.03
A6C U9G | 0.11
A6C C31G | 0.09
A6C C31A | 0.11
A6C C31U | 0.22
A6C G44A | 0.22
A6C G44U | 0.18
A6C G44C | 0.24
A6C C18U | 1.1
A6C C18A | 0.2
A6C C18G | 0.24
A6C A24U | 1.07
A6C A24G | 0.49
A6C A24C | 0.41

Variant | self-cleavage
A6C U20A | 0.52
A6C U20G | 0.35
A6C U20C | 0.33
A6G C31U | 0.03
A6G C31G | 0.05
A6G C31A | 0.07
A6C G33U | 0.09
A6C G33C | 0.07
A6C G33A | 0.06
A6G C13G | 0.13
A6G C13U | 0.15
A6G C13A | 0.19
A6C G22A | 0.66
A6C G22C | 0.65
A6C G22U | 0.57
A6C G35U | 0.09
A6C G35C | 0.05
A6C G35A | 0.08
A6C C10U | 0.15
A6C C10G | 0.05
A6C C10A | 0.11
A6G A41G | 0.39
A6G A41U | 0.1
A6G A41C | 0.15

Variant | self-cleavage
A6C A14G | 0.16
A6C A14C | 0.13
A6C A14U | 0.22
A6G C37G | 0.07
A6G C37A | 0.05
A6C C46A | 0.5
A6C C46G | 0.46
A6C C46U | 0.89
A6C G29C | 0.36
A6C G29U | 0.61
A6C G29A | 0.7
A6C C13G | 0.15
A6C C13A | 0.12
A6C C13U | 0.14
A6C G21U | 0.44
A6C G21C | 0.42
A6C G21A | 1.34
A6G C23A | 0.11
A6G C23U | 0.1
A6G C23G | 0.1
A6C G17A | 0.17
A6C G17C | 1.47
A6C G17U | 0.11
A6G A16C | 0.04

Variant | self-cleavage
A6G A16U | 0.06
A6G A16G | 0.12
A6C C42G | 0.02
A6C C42U | 0.23
A6C C42A | 0.11
A6C A25U | 0.52
A6C A25G | 0.18
A6C A25C | 0.5
A6C U38C | 0.21
A6C U38G | 0.02
A6C U38A | 0.28
A6G A25C | 0.1
A6G A25U | 0.1
A6G A25G | 0.07
A6C U34G | 0.25
A6C U34A | 0.05
A6C U34C | 0.11
A6G | 0.12
A6C U28A | 0.64
A6C U28G | 0.2
A6C U28C | 0.36
A6C G27A | 0.5
A6C G27U | 0.56
A6C G27C | 0.57

Variant | self-cleavage
A6G A39G | 0.03
A6G A39C | 0.15
A6G A39U | 0.08
A6C A12G | 0.04
A6C A12U | 0.16
A6C G7C | 0.08
A6C G7U | 0.1
A6C G7A | 0.18
A6G A14G | 0.07
A6G A14U | 0.05
A6G A14C | 0.14
A6C C37A | 0.34
A6C C37G | 0.03
A6C C37U | 0.12
A6C A39C | 0.23
A6C A39U | 0.68
A6C A39G | 0.1
A6C C8G | 0.07
A6C C8A | 0.26
A6C C8U | 0.51
A6C C23G | 0.43
A6C C23A | 0.5
A6C C23U | 0.62
